The text below walks through data of IntAct's records for PubMed 12782684.

B1: Ras-like protein 2 (Saccharomyces cerevisiae), P01120 (parent)
chain: MPLNKSNIREYKLVVVGGGGVGKSALTIQLTQSHFVDEYDPTIEDSYRKQVVIDDEVSILDILDTAGQEEYSAMREQYMRNGEGFLLVYSITSKSSLDELMTYYQQILRVKDTDYVPIVVVGNKSDLENEKQVSYQDGLNMAKQMNAPFLETSAKQAINVEEAFYTLARLVRDEGGKYNKTLTENDNSKQTSQDTKGSGANSVPRNSGGHRKMSNAANGKNVNSSTTVVNARNASIESKTGLAGNQATNGKTQTDRTNIDNSTGQAGQANAQSANTVNNRVNNNSKAGQVSNAKQARKQQAAPGGNTSEASKSGSGGCCIIS
partner: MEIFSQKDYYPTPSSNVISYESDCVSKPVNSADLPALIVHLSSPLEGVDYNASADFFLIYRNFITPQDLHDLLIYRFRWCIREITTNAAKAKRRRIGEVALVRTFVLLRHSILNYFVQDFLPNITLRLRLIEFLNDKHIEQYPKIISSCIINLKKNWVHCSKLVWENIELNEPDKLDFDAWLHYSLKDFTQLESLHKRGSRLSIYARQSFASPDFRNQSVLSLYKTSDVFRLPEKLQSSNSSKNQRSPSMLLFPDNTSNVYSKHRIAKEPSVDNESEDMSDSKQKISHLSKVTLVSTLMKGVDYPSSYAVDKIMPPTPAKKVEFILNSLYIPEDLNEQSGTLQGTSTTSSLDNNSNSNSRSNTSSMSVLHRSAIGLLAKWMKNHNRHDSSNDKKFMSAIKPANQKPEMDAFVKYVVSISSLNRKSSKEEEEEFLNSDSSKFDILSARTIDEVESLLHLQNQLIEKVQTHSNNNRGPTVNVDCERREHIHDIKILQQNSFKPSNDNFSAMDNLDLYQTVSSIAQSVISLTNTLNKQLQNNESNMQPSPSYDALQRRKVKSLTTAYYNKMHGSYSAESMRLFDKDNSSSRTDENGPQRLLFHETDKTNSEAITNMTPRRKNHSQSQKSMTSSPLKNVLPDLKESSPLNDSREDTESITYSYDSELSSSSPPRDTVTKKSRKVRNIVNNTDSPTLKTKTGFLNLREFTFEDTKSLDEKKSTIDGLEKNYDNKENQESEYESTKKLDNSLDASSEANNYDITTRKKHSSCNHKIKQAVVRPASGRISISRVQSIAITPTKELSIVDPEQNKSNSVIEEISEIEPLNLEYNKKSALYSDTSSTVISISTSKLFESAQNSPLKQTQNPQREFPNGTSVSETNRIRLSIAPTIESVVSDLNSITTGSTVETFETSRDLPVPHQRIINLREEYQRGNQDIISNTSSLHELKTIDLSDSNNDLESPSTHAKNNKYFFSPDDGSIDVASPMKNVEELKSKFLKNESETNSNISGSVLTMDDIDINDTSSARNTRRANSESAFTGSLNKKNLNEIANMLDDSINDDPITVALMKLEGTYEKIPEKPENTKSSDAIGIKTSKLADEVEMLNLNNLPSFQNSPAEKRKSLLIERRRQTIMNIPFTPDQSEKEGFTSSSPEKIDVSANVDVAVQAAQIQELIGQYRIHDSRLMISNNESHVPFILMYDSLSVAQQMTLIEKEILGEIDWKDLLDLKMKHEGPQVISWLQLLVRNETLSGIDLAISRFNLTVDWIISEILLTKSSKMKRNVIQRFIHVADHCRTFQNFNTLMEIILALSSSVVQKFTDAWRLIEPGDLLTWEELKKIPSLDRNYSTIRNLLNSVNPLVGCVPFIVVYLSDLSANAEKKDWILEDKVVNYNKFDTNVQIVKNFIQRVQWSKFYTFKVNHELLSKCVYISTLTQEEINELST

The variants in the first test derive from B1. The conditions noted are these: with lte1_yeast LTE1, P07866.
On to G22N, for which the “effect of a mutation on the interaction” value is reported as “disrupting interaction”.

Variants of B1 are the subject of another test. The conditions noted are these: with lte1_yeast LTE1, P07866. The source holds these as a separate data set.
Consider C318S, for which the “effect of a mutation on the interaction” value is on record as “disrupting interaction”.

Variants of B1 are the subject of the next test. Conditions: with lte1_yeast LTE1, P07866. The source holds these as a separate data set.
As to G19V, the “effect of a mutation on the interaction” value was “increasing interaction”.
